# Data taken from the supplement of paper PMC12667976.
# ± gives the standard error.
# B1: library; numbered along this chain (parent)
# chain: MATDAALRRLLRLHRTEIAVAVDSAFPLLHALADHDVVPEDKFQETLHLKEKEGCPQAFHALLSWLLTQDSTAILDFWRVLFKDYNLERYGRLQPILDSFPKDVDLSQPRKGRKPPAVPKALVPPPRLPTKRKASEEARAAAPAALTPRGTASPGSQLKAKPPKKPESSAEQQRLPLGNGIQTMSASVQRAVAMSSGDVPGARGAVEGILIQQVFESGGSKKCIQVGGEFYTPSKFEDSGSGKNKARSSSGPKPLVRAKGAQGAAPGGGEARLGQQGSVPAPLALPSDPQLHQKNEDECAVCRDGGELICCDGCPRAFHLACLSPPLREIPSGTWRCSSCLQATVQEVQPRAEEPRPQEPPVETPLPPGLRSAGEEVRGPPGEPLAGMDTTLVYKHLPAPPSAAPLPGLDSSALHPLLCVGPEGQQNLAPGARCGVCGDGTDVLRCTHCAAAFHWRCHFPAGTSRPGTGLRCRSCSGDVTPAPVEGVLAPSPARLAPGPAKDDTASHEPALHRDDLESLLSEHTFDGILQWAIQSMARPAAPFPS
# Variants of: B1
# Assay: AIRE transcriptional activation functional score (insulin promoter-GFP; nonsense median 0, synonymous median 1) (normalised score); higher = higher AIRE activity (more reporter activation)
# Details: with insulin promoter-GFP reporter in HEK293
# Method: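 Deep mutational scan of full-length human AIRE (codon-optimized cDNA, DT-POPCode NNN libraries over three regions) integrated at a Bxb1 landing pad in HEK293 cells carrying an insulin core promoter-GFP reporter at a Flp-In site. Cells were sorted for the top 10% GFP about 14 days after transfection. Variant frequency log-ratios (select vs non-select, TileSeq) were rescaled so that the nonsense median is 0 and the synonymous median is 1, then averaged over biological replicates.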
row,Variant,AIRE transcriptional activation functional score
1,L320N,0.948 ± 0.094
2,S338D,1.08 ± 0.17
3,L519T,0.239 ± 0.035
4,E347L,1.16 ± 0.24
5,T504M,0.913 ± 0.12
6,P266H,1.08 ± 0.11
7,V38N,-0.701 ± 0.037
8,V38G,-0.618 ± 0.43
9,K120R,1.21 ± 0.41
10,I330E,0.403 ± 0.19
11,L409D,1.21 ± 0.16
12,T364P,0.694 ± 0.36
13,C472T,-0.165 ± 0.16
14,A141P,0.97 ± 0.31
15,Q213R,0.637 ± 0.33
16,I18R,0.483 ± 0.28
17,H415D,0.797 ± 0.08
18,F230G,0.617 ± 0.19
19,V301L,1.01 ± 0.19
20,V104R,0.389 ± 0.5
21,E296N,1.28 ± 0.28
22,R456N,0.016 ± 0.075
23,P430V,0.632 ± 0.38
24,P430F,1.69 ± 0.089

row,Variant,AIRE transcriptional activation functional score
1,S217V,0.98 ± 0.26
2,G333L,1.17 ± 0.33
3,I96Q,-1.73 ± 0.64
4,G438L,0.0897 ± 0.28
5,A404S,1.02 ± 0.27
6,P286H,0.652 ± 0.12
7,P286M,1.36 ± 0.059
8,V479K,0.833 ± 0.14
9,W65D,-1.55 ± 0.86
10,E359W,1.24 ± 0.06
11,E359V,1.08 ± 0.24
12,T390Y,1.62 ± 0.034
13,A373V,0.766 ± 0.28
14,L470I,0.814 ± 0.23
15,P315K,0.481 ± 0.29
16,D105N,0.431 ± 0.72
17,L428F,1.09 ± 0.22
18,L291K,0.675 ± 0.18
19,R113M,0.565 ± 0.038
20,Q189W,-1.03 ± 0.16
21,Q189G,0.415 ± 0.35
22,F77S,-0.182 ± 0.39
23,L520I,1.23 ± 0.16
24,R8F,-0.127 ± 0.28

row,Variant,AIRE transcriptional activation functional score
1,G150H,1.19 ± 0.08
2,H523I,0.286 ± 0.059
3,P490V,0.606 ± 0.23
4,H512W,1.06 ± 0.066
5,P497W,0.669 ± 0.11
6,E375C,0.539 ± 0.2
7,N244L,0.301 ± 0.25
8,A429S,1.09 ± 0.17
9,A429D,1.07 ± 0.29
10,V226L,1.08 ± 0.24
11,S99W,-0.319 ± 0.086
12,G155K,0.662 ± 0.7
13,G155P,-0.203 ± 0.099
14,E167V,1.18 ± 0.19
15,L385C,1.42 ± 0.073
16,T72G,0.0759 ± 0.77
17,L87I,1.66 ± 0.18
18,P381H,1.03 ± 0.21
19,H319A,1.16 ± 0.14
20,V199P,0.723 ± 0.5
21,F525Y,0.369 ± 0.16
22,S402K,0.894 ± 0.2
23,S402R,1.02 ± 0.21
24,T480I,0.515 ± 0.16

row,Variant,AIRE transcriptional activation functional score
1,S24F,0.0274 ± 0.26
2,S107M,1.27 ± 0.4
3,A138W,1.66 ± 0.094
4,R127V,0.801 ± 0.21
5,G374A,1.33 ± 0.14
6,L406Q,1.11 ± 0.32
7,K395L,1.38 ± 0.15
8,K395T,0.901 ± 0.52
9,R15I,0.486 ± 0.75
10,L128K,-0.124 ± 0.14
11,G379R,0.719 ± 0.28
12,P492D,-0.0101 ± 0.24
13,R351V,0.812 ± 0.3
14,R351M,1.07 ± 0.031
15,D514K,-0.0487 ± 0.099
16,G251C,0.932 ± 0.18
17,A152F,1.55 ± 0.15
18,H14G,0.338 ± 0.25
19,L511F,0.864 ± 0.28
20,K133L,-0.0606 ± 0.37
21,G228S,0.591 ± 0.44
22,C302L,0.555 ± 0.18
23,G208I,-0.141 ± 0.15
24,G197D,0.624 ± 0.1

row,Variant,AIRE transcriptional activation functional score
1,Y394H,0.428 ± 0.44
2,P481T,0.704 ± 0.14
3,A160N,0.242 ± 0.33
4,S506C,1.39 ± 0.1
5,K164C,0.129 ± 0.57
6,A145S,1.4 ± 0.58
7,A258G,0.943 ± 0.19
8,D238F,1.04 ± 0.14
9,D238L,1.13 ± 0.16
10,D304M,1.31 ± 0.084
11,C419E,1.04 ± 0.084
12,L75E,-0.603 ± 0.18
13,L75S,0.842 ± 0.35
14,V348E,0.956 ± 0.17
15,I181A,0.485 ± 0.14
16,G440A,0.417 ± 0.2
17,H396N,1.09 ± 0.083
18,H396Y,1.44 ± 0.066
19,D478G,0.841 ± 0.13
20,D478V,0.89 ± 0.17
21,S372G,0.89 ± 0.1
22,L47F,0.568 ± 0.16
23,Q358P,1.05 ± 0.21
24,P509A,0.736 ± 0.23

row,Variant,AIRE transcriptional activation functional score
1,Q276K,0.954 ± 0.22
2,S278M,1.35 ± 0.14
3,C457Q,0.613 ± 0.35
4,Q262E,1.38 ± 0.083
5,R257L,0.834 ± 0.23
6,G469T,0.687 ± 0.22
7,H35R,-0.213 ± 0.43
8,L158K,0.11 ± 0.86
9,D297N,0.25 ± 0.15
10,H60C,-0.27 ± 0.15
11,S239W,1.37 ± 0.059
12,S195F,0.0295 ± 0.044
13,S195Q,0.659 ± 0.17
14,A451I,0.663 ± 0.18
15,S249I,1.25 ± 0.41
16,R371S,0.653 ± 0.24
17,A265D,0.751 ± 0.27
18,S241I,1.06 ± 0.23
19,G435W,0.957 ± 0.092
20,D36I,0.0675 ± 0.45
21,S248Q,0.368 ± 0.26
22,A25L,1.16 ± 0.47
23,A432L,0.822 ± 0.4
24,P460R,0.824 ± 0.35

row,Variant,AIRE transcriptional activation functional score
1,L66D,-0.102 ± 0.6
2,L66Q,0.233 ± 0.26
3,A191C,1.08 ± 0.068
4,T334W,1.39 ± 0.14
5,Y231R,0.669 ± 0.13
6,H507K,0.802 ± 0.2
7,V279R,1.04 ± 0.18
8,D84T,0.74 ± 0.53
9,L13E,0.79 ± 0.053
10,G277V,1.1 ± 0.19
11,L516A,0.556 ± 0.12
12,L529N,-0.625 ± 0.46
13,K111H,0.607 ± 0.25
14,K111L,1.65 ± 0.63
15,K111M,-0.763 ± 0.21
16,D103H,0.857 ± 0.87
17,A144T,1.02 ± 0.52
18,C446M,-0.496 ± 0.086
19,G263A,0.875 ± 0.26
20,F43G,0.413 ± 0.39
21,L49I,-0.275 ± 1.4
22,G462W,0.899 ± 0.042
23,E237A,1.08 ± 0.18
